Experimental data taken from the supplement of paper PMC9170038.

What was measured:
MS2 coat protein [1] = assay: apparent KD of MS2 coat protein, switch ON state; designed switch direction (-1 OFF switch, 1 ON switch): -1; higher = weaker reporter binding; settings: FMN input: 0 or 200 uM; Eterna round: R93 (includes R88 designs)
Method in brief: (§1)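 Designed RNA switches were made by on-chip transcription from Illumina sequencing clusters and then titrated with SNAP-549-labelled MS2 coat protein. Twofold steps ran from 0.7 or 1.5 nM to 3 µM, each lasting 0.8–1.5 h early and 10–20 min late, in 100 mM Tris-HCl pH 7.5, 80 mM KCl, 4 mM MgCl2, without or with constant ligand. Apparent KD is the per-design median of normalised cluster binding-curve fits.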

MS2 coat protein [2] = assay: apparent KD of MS2 coat protein, switch OFF state (with FMN for OFF switches, without FMN for ON switches); designed switch direction (-1 OFF switch, 1 ON switch): -1; higher = weaker reporter binding; settings: FMN input: 0 or 200 uM; Eterna round: R93 (includes R88 designs)
Method in brief: as §1

“AAAUGACUAGGAUAUACAUGAGGAUCACCCAUGUGUUAAAAUAAAUACACAAAAGAAAGUAGAAGGAGUCAAAA [Ex 3 May 15]” was tested, and the “apparent KD of MS2 coat protein” value (MS2 coat protein [1]) was 22.3 nM and the “apparent KD of MS2 coat protein” value (MS2 coat protein [2]) was 59.7 nM.
With “GAUUAGUGAGGAUAUACAUGAGGAUCACCCAUGUGUAAAAAAAAACGCAAAAAAGAAUGUAGAAGGCACUAAAG [Mat - Exclusion 3 - Mayanna mod - D103]” the “apparent KD of MS2 coat protein” value (MS2 coat protein [1]) was 21.6 nM and the “apparent KD of MS2 coat protein” value (MS2 coat protein [2]) was 31.4 nM.
In the case of “AAAACACAUGAGGAUCACCCAUGUGAGGAUAUGCGAAAAAAAAAAAAAAAAAAAAAACGCAGAAGGCACAUAAA [jn_teaneck]”, the “apparent KD of MS2 coat protein” value (MS2 coat protein [1]) is reported as 23.6 nM and the “apparent KD of MS2 coat protein” value (MS2 coat protein [2]) is reported as 43.5 nM.
For “CUCAUGUGAGGAUAUCAGUAGUAAAAAAAAAAAAUUACUACUGAGAAGGCACAUGAGGAUCACCCAUGUGCCUU [EX4 325: Super Stable 25]”, the “apparent KD of MS2 coat protein” value (MS2 coat protein [1]) was 18.9 nM and the “apparent KD of MS2 coat protein” value (MS2 coat protein [2]) was 15.5 nM.
With “GACUAGUCAGGAUAUACGAACAUGUCAAAAGACGUGAAGGAACAUGAGGAUCACCCAUGUAGAAGGGACUAGCA [Diamond 19]” the “apparent KD of MS2 coat protein” value (MS2 coat protein [1]) was 25.2 nM and the “apparent KD of MS2 coat protein” value (MS2 coat protein [2]) was 17.7 nM.
With “AGAAUACAUGAGGAUCACCCAUGUAAGGAUAUGUGAAGAAAAAGAAAAGAAAAGAAACACAGAAGGUACAAAAG [EX 1 May 18]” the “apparent KD of MS2 coat protein” value (MS2 coat protein [1]) was 30 nM and the “apparent KD of MS2 coat protein” value (MS2 coat protein [2]) was 65.8 nM.
For “CAAAGGUGAGGAUAUACAUAACUAUGACGAAAGUCAUAAACACAUGAGGAUCACCCAUGUAGAAGGCACCACAA [e2]”, the “apparent KD of MS2 coat protein” value (MS2 coat protein [1]) was 32.6 nM and the “apparent KD of MS2 coat protein” value (MS2 coat protein [2]) was 29.9 nM.
In the case of “AAACUACUAGGAUAUACAACGGUGUCCUAACUACUAAGAAAACAUGAGGAUCACCCAUGUAGAAGGAGUAAUAA [Cearused]”, the “apparent KD of MS2 coat protein” value (MS2 coat protein [1]) is reported as 35.8 nM and the “apparent KD of MS2 coat protein” value (MS2 coat protein [2]) is reported as 78.2 nM.
With “AAAAAACAUGAGGAUCACCCAUGUGAGGAUAUCGGAAAAGGAAAAAUAAAAAAGAAGACGAGAAGGCACACCAA [Mat - Exclusion 1 - Eli mod - D74]” the “apparent KD of MS2 coat protein” value (MS2 coat protein [1]) was 20.9 nM and the “apparent KD of MS2 coat protein” value (MS2 coat protein [2]) was 24.6 nM.
“AACAAACAUGAGGAUCACCCAUGUCAGGAUAUGCAAACAACAAACAACAAACAACAAAGCAGAAGGGACAACAA [e1-3]” was tested, and the “apparent KD of MS2 coat protein” value (MS2 coat protein [1]) was 19.9 nM and the “apparent KD of MS2 coat protein” value (MS2 coat protein [2]) was 25.1 nM.
With “AAUAACAGAGGAUAUGCAAAAAUAAGCGGAAACGCAAGAAAACAUGAGGAUCACCCAUGUAGAAGGCUGGAUAA [Tetraloop hairpin BlockHead Variations]” the “apparent KD of MS2 coat protein” value (MS2 coat protein [1]) was 24.6 nM and the “apparent KD of MS2 coat protein” value (MS2 coat protein [2]) was 16.7 nM.
In the case of “AAAAAACAUGAGGAUCACCCAUGUGAGGAUAUCUGAAAAAAAAAAAAAAAAAAGAAAAAGAGAAGGCGCAAAGA [Ex 1 #2]”, the “apparent KD of MS2 coat protein” value (MS2 coat protein [1]) is reported as 38 nM and the “apparent KD of MS2 coat protein” value (MS2 coat protein [2]) is reported as 35.1 nM.
With “AGUAUGCGAGGAUAUACAUGAGGAUCACCCAUGUGAGAGAUAAAAGUGAGAAAGAAAUGUAGAAGGCGCGUACA [JL Lego Mod 22]” the “apparent KD of MS2 coat protein” value (MS2 coat protein [1]) was 98.8 nM and the “apparent KD of MS2 coat protein” value (MS2 coat protein [2]) was 43 nM.
In the case of “AAAAAGGGAGGAUAUACAUGAGGAUCACCCAUGUAAAAAAAAAAAGGAGGGAGGGAAGGUAGAAGGCCCAAAAA [Excls3-IIi]”, the “apparent KD of MS2 coat protein” value (MS2 coat protein [1]) is reported as 17.7 nM and the “apparent KD of MS2 coat protein” value (MS2 coat protein [2]) is reported as 24.6 nM.
For “AUAGUAGGAGGAUAUACAUAGAUACAGAUACAUGUAGACGUACAUGAGGAUCACCCAUGUAGAAGGCCUAUGAA [Mat - Same state - Mayanna Mod - D149]”, the “apparent KD of MS2 coat protein” value (MS2 coat protein [1]) was 126 nM and the “apparent KD of MS2 coat protein” value (MS2 coat protein [2]) was 116 nM.
With “AGUUGGCGAGGAUAUACAUGAGGAUCACCCAUGUGAGAGAAAAACUCGAAAGAGAAAAGUAGAAGGCGCUGACA [73%, Moding Norbert Elias, 6]” the “apparent KD of MS2 coat protein” value (MS2 coat protein [1]) was 19.3 nM and the “apparent KD of MS2 coat protein” value (MS2 coat protein [2]) was 82.2 nM.
In the case of “CCACAGGUAGGAUAUGCUGGGUGGGAUAAAUAAUUCCUGUGACAUGAGGAUCACCCAUGUAGAAGGACCAAAAG [Rixela]”, the “apparent KD of MS2 coat protein” value (MS2 coat protein [1]) is reported as 22.9 nM and the “apparent KD of MS2 coat protein” value (MS2 coat protein [2]) is reported as 40.1 nM.
For “ACAAACCAAGGAUAUACAUGAGGAUCACCCAUGUGUUCGGCGUUUAGCAUGGGCAGCAGUAGAAGGUGGAGAAA [Dilareat]”, the “apparent KD of MS2 coat protein” value (MS2 coat protein [1]) was 37.4 nM and the “apparent KD of MS2 coat protein” value (MS2 coat protein [2]) was 93.1 nM.
With “AUAGGUCGAGGAUAUACAUGAGGAUCACCCAUGUAAAUAAAUAAAUAAAACUCCACAAGUAGAAGGCGAAAUAA [JR_Exc003_Sub201]” the “apparent KD of MS2 coat protein” value (MS2 coat protein [1]) was 28.1 nM and the “apparent KD of MS2 coat protein” value (MS2 coat protein [2]) was 22.6 nM.
“GAAAAGUGAGGAUAUGCGAAGGCGUCUGAUAGACGAGGCUAGCAGAAGGCACAUGAGGAUCACCCAUGUGGGAG [Mat - Exclusion 4 - Eli mod - D92]” was tested, and the “apparent KD of MS2 coat protein” value (MS2 coat protein [1]) was 61.9 nM and the “apparent KD of MS2 coat protein” value (MS2 coat protein [2]) was 76.4 nM.
With “AAAACACAUGAGGAUCACCCAUGUGAGGAUAUGCUAUGGAAAUAAAAAAUAAAACAUAGCAGAAGGCGCAGGAA [Mat - Exclusion 1 - Eli mod - D47]” the “apparent KD of MS2 coat protein” value (MS2 coat protein [1]) was 25.2 nM and the “apparent KD of MS2 coat protein” value (MS2 coat protein [2]) was 29.1 nM.
With “GAAAAGUGAGGAUAUACAGAUAAAAAAACGAAAAAAAAUCUGUAGAAGGCACAUGAGGAUCACCCAUGUAAAAA [Mat - Exclusion 4 - Mayanna - D106]” the “apparent KD of MS2 coat protein” value (MS2 coat protein [1]) was 31.7 nM and the “apparent KD of MS2 coat protein” value (MS2 coat protein [2]) was 29.8 nM.
For “AACUGACAUGAGGAUCACCCAUGUCAGGAUAUGACUUGAAAAAUAAAAUAAAAACAUGUCAGAAGGGACAUGGG [Design 54 :P Sub-opt H]”, the “apparent KD of MS2 coat protein” value (MS2 coat protein [1]) was 20.2 nM and the “apparent KD of MS2 coat protein” value (MS2 coat protein [2]) was 18.9 nM.
For “AAGCACAGAGGAUAUACAUGGGUAAAAAAAAAAAAAAAAAAACAUGAGGAUCACCCAUGUAGAAGGCUGUGCAA”, the “apparent KD of MS2 coat protein” value (MS2 coat protein [1]) was 32.6 nM and the “apparent KD of MS2 coat protein” value (MS2 coat protein [2]) was 24.3 nM.
In the case of “GGUUGACGAGGAUAUACAUGAGGAUCACCCAUGUGAGAGAAAAAAGUGAGAAAGAAAAGUAGAAGGCGUUGACG [salish99-ex3-59]”, the “apparent KD of MS2 coat protein” value (MS2 coat protein [1]) is reported as 36.9 nM and the “apparent KD of MS2 coat protein” value (MS2 coat protein [2]) is reported as 91.8 nM.
For “AAUUAGUGAGGAUAUACAUGAGGAUCACCCAUGUGUAAAAAAAAACGCAAAAAAGAAUGUAGAAGGCACUAAAA [Ex 3 Cold]”, the “apparent KD of MS2 coat protein” value (MS2 coat protein [1]) was 20.3 nM and the “apparent KD of MS2 coat protein” value (MS2 coat protein [2]) was 37.9 nM.
“CUCUUGUGAGGAUAUGAAAGAAAAGAAGAGAAAGAAAAGAAUCAGAAGGCACAUGAGGAUCACCCAUGUAAGAA [EteRNA is fun!]” was tested, and the “apparent KD of MS2 coat protein” value (MS2 coat protein [1]) was 27.4 nM and the “apparent KD of MS2 coat protein” value (MS2 coat protein [2]) was 106 nM.
“AGAAAGUCAGGAUAUACGAACAAGAAAAAAGACGAGAACGGACAUGAGGAUCACCCAUGUAGAAGGGACAAGAA [Diamond 13]” was tested, and the “apparent KD of MS2 coat protein” value (MS2 coat protein [1]) was 73.5 nM and the “apparent KD of MS2 coat protein” value (MS2 coat protein [2]) was 36.3 nM.
In the case of “ACGAAGAGAGGAUAUACGAACAUGUCAAAAGACGUGAAGGGACAUGAGGAUCACCCAUGUAGAAGGCUCUUCGA [Mat - Exclusion 2 - JL mod - D10]”, the “apparent KD of MS2 coat protein” value (MS2 coat protein [1]) is reported as 45.4 nM and the “apparent KD of MS2 coat protein” value (MS2 coat protein [2]) is reported as 167 nM.
For “AAAAAACAUGAGGAUCACCCAUGUGAGGAUAUCGCUAGUCAGUCCCUAGAGUGAGUGAUGAGAAGGCACAUAAA [Brourd 613 Mod 7 - Jieux - Exclusion 1]”, the “apparent KD of MS2 coat protein” value (MS2 coat protein [1]) was 40.9 nM and the “apparent KD of MS2 coat protein” value (MS2 coat protein [2]) was 49.6 nM.
With “AAUUAGGUAGGAUAUACAUGAGGAUCACCCAUGUGGAAAAAAAACUACGAAAAAGAAUGUAGAAGGACCUAAAA [Ex 3 Frozen]” the “apparent KD of MS2 coat protein” value (MS2 coat protein [1]) was 18.8 nM and the “apparent KD of MS2 coat protein” value (MS2 coat protein [2]) was 21.9 nM.
With “CAUAAGCAAGGAUAUACAUGAGGAUCACCCAUGUAGCUUUGCUUCGUGGGCACAACAUGUAGAAGGUGCGAAAA [Leceedon]” the “apparent KD of MS2 coat protein” value (MS2 coat protein [1]) was 15 nM and the “apparent KD of MS2 coat protein” value (MS2 coat protein [2]) was 13.9 nM.
With “AGUUGGCGAGGAUAUACAUGAGGAUCACCCAUGUAAAAUAAAUAAAAAAUAAAGGGAAGUAGAAGGCGCUGACA [73%, Moding Norbert Elias, 15]” the “apparent KD of MS2 coat protein” value (MS2 coat protein [1]) was 41.8 nM and the “apparent KD of MS2 coat protein” value (MS2 coat protein [2]) was 77 nM.
With “AAGAAAGGAGGAUAUACAAAAUAAAAGAAAAGAAAGAAAGAACAUGAGGAUCACCCAUGUAGAAGGCCUAAGAA [Merhotepre Sobekhotep V]” the “apparent KD of MS2 coat protein” value (MS2 coat protein [1]) was 23.5 nM and the “apparent KD of MS2 coat protein” value (MS2 coat protein [2]) was 14.4 nM.
